# Test results published in PMC3164632.
# Molecular target: West Nile virus envelope (E) protein (West Nile virus)
substance,measurement,value
Aedes aegypti pupal cuticle (PC) protein (AAEL011045) (natural protein),"survival of mice injected i.p. with WNV pre-incubated with PC protein for an hour at 37°C (against WNV alone, all of which died within 14 days p.i.)",60%
